Data as given in article PMC6980832, “Crystal structures of Triosephosphate Isomerases from Taenia solium and Schistosoma mansoni provide insights for vaccine rationale and drug design against helminth parasites” (PLoS Neglected Tropical Diseases, 2020).

B1: Triosephosphate isomerase from Schistosoma mansoni (enzyme)
chain: GPHMSGSRKFFVGGNWKMNGSRDDNDKLLKLLSEAHFDDNTEVLIAPPSVFLHEIRKSLKKEIHVAAQNCYKVSKGAFTGEISPAMIRDIGCDWVILGHSERRNIFGESDELIAEKVQHALAEGLSVIACIGETLSERESNKTEEVCVRQLKAIANKIKSADEWKRVVVAYEPVWAIGTGKVATPQQAQEVHNFLRKWFKTNAPNGVDEKIRIIYGGSVTAANCKELAQQHDVDGFLVGGASLKPEFTEICKARQR
notes: three additional amino acids (Gly, Pro, His) before the initial methionine, left from the modified pET19 vector; triosephosphate isomerase, Schistosoma mansoni, XP_018647623; all 253 amino acids visible in the crystal structure; also called SmTPI; wild-type SmTPI; source: E. coli strain devoid of its endogenous triosephosphate isomerase gene, purified (two purification steps)
B2: Triosephosphate isomerase from Taenia solium (enzyme)
chain: GPHMTRKLFVGGNWKMNGSYSHINTFFDTLQKADTDPNADIVIGVPACYLKYAQDKAPKGIKIAAENCYKVGSGAFTGEISTEMIKDCGCEWVILGHSERRHIFGESNELIGEKVKHALDSGLNVIPCIGELLSEREAGKTNDVCFAQMDAIAKNVPSKEAWDKVVIAYEPVWAIGTGKTATPAQAQEVHKVVRDWIRKHVDAGIADKVRILYGGSVTASNAKDLGTQPDVDGFLVGGASLKPDFITIINARR
notes: three additional amino acids (Gly, Pro, His) before the initial methionine, left from the modified pET19 vector; triosephosphate isomerase, Taenia solium, GenBank AAG21132.1; all 250 amino acids visible in the crystal structure; also called TsTPI; source: E. coli strain devoid of its endogenous triosephosphate isomerase gene, purified (two purification steps)

Assays:
[1] = target: the molecule itself; test: SEC; gel filtration elution profile of wild-type and point mutants of SmTPI; conditions not shown
[2] = target: the molecule itself; test: crystal structure; sitting drop; protein 20 mg/ml incubated with 10 mM 2-phosphoglyceric acid in storage buffer; homodimer seen in the crystal

Protein	stoichiometry N [1]	binding result [2]
B1	2	–
B2	–	binds
